In article doi:10.1101/2021.03.20.21254037 one finds t½ (complex half-time) data, which are given here for five substances.

The target of the assay is truncated human ACE2 ectodomain (residues 19-613), AviTagged, biotinylated (human) (UniProt Q9BYF1). As to the kind of experiment: BLI. A general note: Biolayer interferometry detects binding as a change in optical thickness at a sensor tip.

With “SARS-CoV-2 RBD natural variant N439K (from UniProt P0DTC2 319-541) (domain or fragment)”, the t½ (complex half-time) was 1.85 min.

Turning to “SARS-CoV-2 RBD natural variant N501Y (from UniProt P0DTC2 319-541) (domain or fragment)”, the t½ (complex half-time) came to 5.49 min.

As to “SARS-CoV-2 RBD natural variant Q493L (from UniProt P0DTC2 319-541) (domain or fragment)”, the t½ (complex half-time) worked out at 3.52 min.

As to “SARS-CoV-2 RBD natural variant S477N (from UniProt P0DTC2 319-541) (domain or fragment)”, the t½ (complex half-time) was determined as 2.68 min.

“SARS-CoV-2 RBD wild type (WHU1 isolate, amino acids 319-541) (from UniProt P0DTC2 319-541) (domain or fragment)” yielded a t½ (complex half-time) of 1.4 min.
